Measurements as given in patent CN111378040A (UNIV SHENZHEN, dated 2020).

Assays:
带有His标签的人源的ROR2胞外端 = molecular target: T1, 带有His标签的人源的ROR2胞外端 (human, UniProt Q01974 34-403); test: immunoblot, lysate of 293T-ROR2-KO cells transfected with His-tagged human ROR2ex, 5ug/ml
T1 construct: extracellular domain; Denatured cell lysate in an immunoblot; it is put last only for want of a statement; also called human ROR2ex; humanROR2ex; not shown: His tag

ROR2膜蛋白 = molecular target: T2, ROR2膜蛋白 (UniProt Q01974 34-943, limits assumed); test: flow cytometry on T47D cells (ROR2 positive) against 231 cells (ROR2 negative), 10ug/ml
T2 construct: whole, on cells; Endogenous ROR2 of T47D cells and of cells from human patients; also called ROR2 on T47D cells; ROR2 on patient blood cancer cells and lymphoma PDX tumour cells
T2 sequence (Q01974 34-943 limits assumed): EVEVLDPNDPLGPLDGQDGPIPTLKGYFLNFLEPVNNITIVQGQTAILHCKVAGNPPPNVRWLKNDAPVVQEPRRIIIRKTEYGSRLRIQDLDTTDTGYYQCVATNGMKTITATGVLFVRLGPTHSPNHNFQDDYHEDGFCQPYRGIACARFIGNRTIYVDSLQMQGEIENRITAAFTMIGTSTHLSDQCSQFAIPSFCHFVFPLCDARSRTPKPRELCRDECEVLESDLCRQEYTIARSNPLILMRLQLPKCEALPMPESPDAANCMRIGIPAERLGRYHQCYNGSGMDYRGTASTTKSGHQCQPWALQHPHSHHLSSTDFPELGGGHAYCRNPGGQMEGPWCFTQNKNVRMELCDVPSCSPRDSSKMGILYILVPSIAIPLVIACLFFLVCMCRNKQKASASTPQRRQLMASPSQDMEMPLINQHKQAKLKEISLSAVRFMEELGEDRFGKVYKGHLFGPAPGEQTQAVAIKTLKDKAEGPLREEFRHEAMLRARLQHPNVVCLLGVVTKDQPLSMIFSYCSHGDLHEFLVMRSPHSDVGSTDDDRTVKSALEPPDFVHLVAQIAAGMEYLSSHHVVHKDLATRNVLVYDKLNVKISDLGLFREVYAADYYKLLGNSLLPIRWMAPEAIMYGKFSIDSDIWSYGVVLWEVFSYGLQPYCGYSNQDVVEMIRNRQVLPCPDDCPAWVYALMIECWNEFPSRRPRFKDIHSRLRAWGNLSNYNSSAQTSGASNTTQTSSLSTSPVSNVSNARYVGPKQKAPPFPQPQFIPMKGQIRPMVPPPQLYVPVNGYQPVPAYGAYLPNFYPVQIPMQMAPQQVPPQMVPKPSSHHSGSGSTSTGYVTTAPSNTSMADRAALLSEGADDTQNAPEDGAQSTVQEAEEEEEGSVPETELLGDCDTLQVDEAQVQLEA

内源性的ROR2 (293T细胞) = molecular target: T3, 内源性的ROR2 (293T细胞) (UniProt Q01974 34-943); test: immunoprecipitation from 293T cell lysate, blot with Santa Cruz ROR2 antibody sc-374174
T3 construct: Whole endogenous protein in cell lysate, used for immunoprecipitation; also called endogenous ROR2 protein of ROR2-positive 293T cells
T3 sequence (Q01974 34-943 limits assumed): as above

T1 sequence (Q01974 34-403): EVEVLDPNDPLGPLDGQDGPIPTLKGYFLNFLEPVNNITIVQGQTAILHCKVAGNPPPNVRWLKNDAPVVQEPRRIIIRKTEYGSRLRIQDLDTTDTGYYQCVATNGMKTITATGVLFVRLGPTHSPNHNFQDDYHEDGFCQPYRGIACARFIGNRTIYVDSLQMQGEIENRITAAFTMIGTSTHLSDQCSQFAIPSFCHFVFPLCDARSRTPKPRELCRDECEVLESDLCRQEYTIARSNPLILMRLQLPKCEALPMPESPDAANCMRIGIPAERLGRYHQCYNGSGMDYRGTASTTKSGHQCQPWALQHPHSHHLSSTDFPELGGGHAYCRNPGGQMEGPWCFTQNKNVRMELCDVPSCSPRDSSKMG

binding result (带有His标签的人源的ROR2胞外端)	binding result (ROR2膜蛋白)	binding result (内源性的ROR2 (293T细胞))	Binder
binds	binds	binds	B22嵌合抗体 (antibody, human IgG1, kappa, V domains shown, Chimeric antibody expressed in 293F cells and purified on Protein A; also called B22抗体; SA120-2) VH: QVQLQQPGAALVKPGASVKLSCKASGYTFTNYWIQWMKQRPGQGLEWIGEINPSNGRTDYNEKFKNRATLTVDNSSTTAYMQLSSLTSEDSAVYYCANYRPGYWGQGTSVTVSS VL: DIVMTQSQKFMSTSVGDRVSVTCKASQNVGTNVAWFQQKPGQSPKPLIYLASYRYSGVPDRFTGSGSGTDFTLTISNVQSEDLAEYFCQQYNSYPLTFGGGTNLEIKR
binds	binds	binds	A12嵌合抗体 (antibody, human IgG1, kappa, V domains shown, Chimeric antibody expressed in 293F cells and purified on Protein A; also called A12抗体; ROR2-A12) VH: QVQLQQSGPELVKPGASVRMSCKAAGYTITSYLMHWVKQRPGQDLEWIGYINPYNDGTKYNEKFKDKATLTSDKSSSTAYMELSSLTSEDSAVYYCARSDVYYGVRFAYWGQGTLVTVSA VL: DIVLTQSPAIMSASPGEKVTMTCSASSSVSYMHWYQQKSGTSPKRWIYDTSKLASGVPARFSGSGSGTSYSLTISSMEAEDAAIYYCQQWSSNPPTFGAGTKLELKR
binds	binds	binds	B30嵌合抗体 (antibody, human IgG1, kappa, V domains shown, Chimeric antibody expressed in 293F cells and purified on Protein A; also called B30抗体; ROR2-B30) VH: QVQLQQSGPELVKPGASVRMSCKAAGYTFTSYLIHWVKQRPGQDLEWIGYINPYNDGTKYNEKFKDKATLTSDKSSSTAYMELSSLTSEDSAVYYCARSDVYYGVRFAYWGQGTLVTVSA VL: DIVLTQSPVIMSASPGEKVTMTCSASSSISYMYWYQQKPGSSPRLLIYDTSILASGVPVRFSGSGSGTSYSLTISRMEAEDAATYYCQQWSSYPFTFGSGTKLEIKR
